Source: patent US20040248244

Legend:
[1] = tested on: GST fusion protein containing the first 70 amino acids of p53 (GST-p531-70)
[2] = molecular target: GST-hUpf11019-1118 (GST fused to the carboxyl-terminal region of hUpf1, amino acids 1019-1118) (UniProt Q92900)
[3] = tested on: GST-p531-70(S15A)
[4] = molecular target: PHAS-I/4E-BP1 protein (UniProt Q13541)
Sequence of PHAS-I/4E-BP1 protein (Q13541 whole entry): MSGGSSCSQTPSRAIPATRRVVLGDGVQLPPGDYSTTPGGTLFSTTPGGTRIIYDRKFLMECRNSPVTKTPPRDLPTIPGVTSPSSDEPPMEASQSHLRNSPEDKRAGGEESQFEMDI

Sequence of GST fusion protein containing the first 70 amino acids of p53 (GST-p531-70) (chain, as listed by the source): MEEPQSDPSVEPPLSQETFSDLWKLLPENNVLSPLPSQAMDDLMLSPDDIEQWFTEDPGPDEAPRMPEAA
Sequence of GST-hUpf11019-1118 (GST fused to the carboxyl-terminal region of hUpf1, amino acids 1019-1118) (Q92900 1019-1118): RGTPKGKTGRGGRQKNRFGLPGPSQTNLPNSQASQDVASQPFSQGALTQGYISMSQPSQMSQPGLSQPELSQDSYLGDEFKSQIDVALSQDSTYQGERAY

Substance | phosphorylation of substrate in immune complex kinase assay, compared with GST-hUpf11019-1118 [1] | specific kinase activity in immune complex kinase assay (ratio of 32P incorporation into substrate to level of HA-tagged kinase) [1] | phosphorylation of substrate in immune complex kinase assay [2] | phosphorylation of substrate in immune complex kinase assay [3] | phosphorylation of substrate in immune complex kinase assay [4] | specific kinase activity in immune complex kinase assay [1]
HA-tagged wild-type ATX (HA-ATXWT) | GST-p531-70 was more avidly phosphorylated by ATX than was the GST-hUpf11019-1118 substrate | the specific kinase activity of ATXWT was approximately 3.5-fold higher than that of ATMWT | phosphorylated by both ATM and ATX, with the latter protein kinase showing the higher specific catalytic activity | nearly abolished | poorly phosphorylated | –
HA-tagged wild-type ATM (HA-ATMWT) | – | – | phosphorylated by both ATM and ATX | – | – | the specific kinase activity of HA-ATXWT towards GST-p531-70 was significantly higher than that of HA-ATM
